The test concerns the target ELP-substrate fusion M(GVGVP)60…. Put plainly: cell-based or functional assay.

We go through one substance from US20160348147A1, “SYSTEMS AND DEVICES FOR PROTEASE DETECTION BASED ON ENGINEERED POLYMERS AND BIOPOLYMERS AND METHODS OF USE” (DUKE UNIVERSITY, priority 2014, published 2016).

ELP-substrate fusion M(GVGVP)60…, sequence (chain, as listed by the source): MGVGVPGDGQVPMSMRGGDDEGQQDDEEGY

“Human MMP-1 catalytic domain (recombinant, produced in E. coli, 19.9 kDa) (from UniProt P03956 100-269) (enzyme)” came in with an aggregation time (optical density versus time), 50 ng/mL MMP-1, without inhibitor of less than 50 min.
